The experiment deals with A/New Caledonia/20/1999 (H1N1) hemagglutinin, truncated recombinant HA (Influenza A virus A/New …, UniProt Q6WG00, strain). In words: ELISA.

B1: mAb BE1 (whole mouse antibody) (antibody, V domains shown)
VH: EVQLVESGGGLVQPKGSLKLSCATSGFTFNTFDMHWVRQAPGKDLEWVARIRTKGNSYATYYAASVKDRITISRDDSQSMLYLEMNSLRSEDTAMYYCVREGGHYYGYYFDFWGQGTTLTVSS
VL: EIQMTQTTSSLSASLGDRVTISCRASQDIYNYLNWYQQQPDGAVKLLIYYTSKLHSGVPSRFSGSGSGTDYSLTITNLEQEDIATYFCQQGYTLPYTFGGGTKLEIK
As to B1, the binding result is “binds”.

Values taken from publication PMC11316637 (Structure (London, England : 1993), 2024).
